# B1: VS-HiBiT/LgBiT-HaloTag: bioluminescent complementation reporter comprising VS-HiBiT peptide and LgBiT-HaloTag (protein)
# chain: MVFTLEDFVGDWEQTAAYNLDQVLEQGGVSSLLQNLAVSVTPIQRIVRSGENALKIDIHVIIPYEGLSADQMAQIEEVFKVVYPVDDHHFKVILPYGTLVIDGVTPNMLNYFGRPYEGIAVFDGKKITVTGTLWNGNKIIDERLITPDGSMLFRVTINSMAEIGTGFPFDPHYVEVLGERMHYVDVGPRDGTPVLFLHGNPTSSYVWRNIIPHVAPTHRCIAPDLIGMGKSDKPDLGYFFDDHVRFMDAFIEALGLEEVVLVIHDWGSALGFHWAKRNPERVKGIAFMEFIRPIPTWDEWPEFARETFQAFRTTDVGRKLIIDQNVFIEGTLPMGVVRPLTEVEMDHYREPFLNPVDREPLWRFPNELPIAGEPANIVALVEEYMDWLHQSPVPKLLFWGTPGVLIPPAEAARLAKSLPNCKAVDIGPGLNLLQEDNPDLIGSEIARWLSTLEISG
# modifications: left off: large carriers
# Columns and labels:
# VS-HiBiT peptide = test: Complementation affinity with VS-HiBiT peptide; type: binding; conditions: versus HaloTag-LgBiT configuration
# From the text: Such configuration offers a modality agnostic approach for proximity between the photocatalytic complex and protein of interest genetically fused to HiBiT as well as greater spatial control over photocatalytic reactivity. First, the properties of the bioluminescent complementation reporter comprising VS-HiBiT peptide and either HaloTag-LgBiT or LgBiT-HaloTag were compared (FIG. 23 A-C). To determine complementation affinity, equal volumes of VS-HiBiT peptide serially diluted in TBS+0.01% BSA to final concentrations of 200-0 nM and HaloTag-LgBiT or LgBiT-HaloTag diluted in TBS+0.01% BSA to a final concentration of 0.2 nM were combined in wells of a white 96-well plate and mixed for 30 minutes. Following a 3-minutes treatment with either 10× furimazine or fluorofurimazine at a final concentration 20 M, bioluminescence was measured on a GloMax® Discover plate reader (Promega), and binding affinity (Kd) was derived from a saturation binding curve of luminescence against VS-HiBiT concentration (FIG. 23A). […] Following a 3-minutes treatment with either 10× furimazine or fluorofurimazine at a final concentration 20 M, raw luminescence (Total RLU; FIG. 23B) or filtered luminesces of donor (e.g., 450 nm/8 nm BP) and acceptor (600 nm LP) emissions were measured on a GloMax® Discover plate reader (Promega). […]
# [1] = Brightness and BRET efficiency to a bound HaloTag TMR-fluorescent ligand; type: biochemical; conditions: versus HaloTag-LgBiT configuration, complemented with VS-HiBiT
# From the text: The efficiency of bioluminescence-triggered catalyst activation depends on the emission intensity of the luciferase energy donor, spectral overlap between luciferase emission and catalyst excitation, proximity between the luciferase and catalyst, and capacity of the complex to adopt a conformation favorable for efficient energy transfer between the two. First, the influence of the NanoLuc-HaloTag fusion orientation on the efficiency of bioluminescence resonance energy transfer (BRET) to a bound HaloTag TMR-fluorescent ligand was tested. To this end, fusions either untethered or tethered to a HaloTag TMR-fluorescent ligand were diluted in TBS+0.01% BSA to a final concentration of 6.6 nM and then treated with 10× fluorofurimazine at a final concentration of 20 M. Following 3 minutes incubation, raw luminescence (Total RLU) or filtered luminesces for donor (e.g., 450 nm/8 nm BP) and acceptor (600 nm LP) emissions, respectively were measured on a GloMax® Discover plate reader (Promega). BRET ratios were further calculated for each sample by dividing the acceptor emission value by its donor emission value. While both orientations delivered equivalent brightness one of them NanoLuc-HaloTag provided greater BRET efficiency (FIG. 16A), which is likely due to greater proximity between NanoLuc's substrate binding site and the bound fluorescent ligand. […]
molecule,measurement,setting,value
B1,"complementation affinity, fold higher",VS-HiBiT peptide,3 fold
same,"BRET efficiency, fold greater",[1],1.5-2 fold

# — patent publication US20240191211A1, “BIOLUMINESCENCE-TRIGGERED PHOTOCATALYTIC LABELING” (Promega Corporation, priority 2022, published 2024)
